Test results reported in IntAct's records for PubMed 21471202.

B1: Low-density lipoprotein receptor-related protein 4 (Homo sapiens), O75096 (parent)
chain: MRRQWGALLLGALLCAHGLASSPECACGRSHFTCAVSALGECTCIPAQWQCDGDNDCGDHSDEDGCILPTCSPLDFHCDNGKCIRRSWVCDGDNDCEDDSDEQDCPPRECEEDEFPCQNGYCIRSLWHCDGDNDCGDNSDEQCDMRKCSDKEFRCSDGSCIAEHWYCDGDTDCKDGSDEENCPSAVPAPPCNLEEFQCAYGRCILDIYHCDGDDDCGDWSDESDCSSHQPCRSGEFMCDSGLCINAGWRCDGDADCDDQSDERNCTTSMCTAEQFRCHSGRCVRLSWRCDGEDDCADNSDEENCENTGSPQCALDQFLCWNGRCIGQRKLCNGVNDCGDNSDESPQQNCRPRTGEENCNVNNGGCAQKCQMVRGAVQCTCHTGYRLTEDGHTCQDVNECAEEGYCSQGCTNSEGAFQCWCETGYELRPDRRSCKALGPEPVLLFANRIDIRQVLPHRSEYTLLLNNLENAIALDFHHRRELVFWSDVTLDRILRANLNGSNVEEVVSTGLESPGGLAVDWVHDKLYWTDSGTSRIEVANLDGAHRKVLLWQNLEKPRAIALHPMEGTIYWTDWGNTPRIEASSMDGSGRRIIADTHLFWPNGLTIDYAGRRMYWVDAKHHVIERANLDGSHRKAVISQGLPHPFAITVFEDSLYWTDWHTKSINSANKFTGKNQEIIRNKLHFPMDIHTLHPQRQPAGKNRCGDNNGGCTHLCLPSGQNYTCACPTGFRKISSHACAQSLDKFLLFARRMDIRRISFDTEDLSDDVIPLADVRSAVALDWDSRDDHVYWTDVSTDTISRAKWDGTGQEVVVDTSLESPAGLAIDWVTNKLYWTDAGTDRIEVANTDGSMRTVLIWENLDRPRDIVVEPMGGYMYWTDWGASPKIERAGMDASGRQVIISSNLTWPNGLAIDYGSQRLYWADAGMKTIEFAGLDGSKRKVLIGSQLPHPFGLTLYGERIYWTDWQTKSIQSADRLTGLDRETLQENLENLMDIHVFHRRRPPVSTPCAMENGGCSHLCLRSPNPSGFSCTCPTGINLLSDGKTCSPGMNSFLIFARRIDIRMVSLDIPYFADVVVPINITMKNTIAIGVDPQEGKVYWSDSTLHRISRANLDGSQHEDIITTGLQTTDGLAVDAIGRKVYWTDTGTNRIEVGNLDGSMRKVLVWQNLDSPRAIVLYHEMGFMYWTDWGENAKLERSGMDGSDRAVLINNNLGWPNGLTVDKASSQLLWADAHTERIEAADLNGANRHTLVSPVQHPYGLTLLDSYIYWTDWQTRSIHRADKGTGSNVILVRSNLPGLMDMQAVDRAQPLGFNKCGSRNGGCSHLCLPRPSGFSCACPTGIQLKGDGKTCDPSPETYLLFSSRGSIRRISLDTSDHTDVHVPVPELNNVISLDYDSVDGKVYYTDVFLDVIRRADLNGSNMETVIGRGLKTTDGLAVDWVARNLYWTDTGRNTIEASRLDGSCRKVLINNSLDEPRAIAVFPRKGYLFWTDWGHIAKIERANLDGSERKVLINTDLGWPNGLTLDYDTRRIYWVDAHLDRIESADLNGKLRQVLVSHVSHPFALTQQDRWIYWTDWQTKSIQRVDKYSGRNKETVLANVEGLMDIIVVSPQRQTGTNACGVNNGGCTHLCFARASDFVCACPDEPDSRPCSLVPGLVPPAPRATGMSEKSPVLPNTPPTTLYSSTTRTRTSLEEVEGRCSERDARLGLCARSNDAVPAAPGEGLHISYAIGGLLSILLILVVIAALMLYRHKKSKFTDPGMGNLTYSNPSYRTSTQEVKIEAIPKPAMYNQLCYKKEGGPDHNYTKEKIKIVEGICLLSGDDAEWDDLKQLRSSRGGLLRDHVCMKTDTVSIQASSGSLDDTETEQLLQEEQSECSSVHTAATPERRGSLPDTGWKHERKLSSESQV

Variants of: B1
Settings: with sost_human SOST

Row | effect of a mutation on the interaction | Variant
1 | decreasing interaction | W1186S
2 | decreasing interaction | R1170W
